Assay [1] addresses T1, human ANGPTL3 17-220 (human).
T1 chain: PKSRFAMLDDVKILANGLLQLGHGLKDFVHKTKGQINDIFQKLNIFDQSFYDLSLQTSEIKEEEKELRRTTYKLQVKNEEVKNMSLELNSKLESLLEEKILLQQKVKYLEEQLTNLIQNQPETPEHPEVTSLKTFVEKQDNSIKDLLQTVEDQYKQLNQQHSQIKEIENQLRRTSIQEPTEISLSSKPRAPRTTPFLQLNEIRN
Kind of assay: SPR, pH 6.0, 37C. (In general: Surface plasmon resonance follows binding to a sensor surface in real time, without labels.)

The target in assay [2] is T1, human ANGPTL3 17-220. Briefly: SPR, pH 7.4, 37C.
Assay [3] addresses T1, human ANGPTL3 17-220. Briefly: SPR, pH 6.0, 37C.

The Kd is a measure of binding affinity in units of concentration.

B1: tmAb2 (antibody, V domains shown)
VH: EVQLLESGGGLVQPGGSLRLSCAASDFNFRSYWMTWVRQAPGKGLEWVSSISSHSTYIYYADSVKGRFTISRDNSKNTLYLQMNSLRAEDTATYYCAREGWYDNWFDPWGQGTLVTVSS
VL: EIVLTQSPGTLSLSPGERATLSCRASQNIRSPYLAWYQQKPGQAPRLLIYGVSSRAAGIPDRFSGSGSGTDFTLTISRLEPEDFAVYYCQQYDDHPYTFGQGTKLEIK
B1: in the assay with human ANGPTL3 17-220 [1], the binding result is listed as “no binding”. In the assay with human ANGPTL3 17-220 [2], the affinity, expressed as Kd, was 43 nM.

B2: tmAb1 (antibody, V domains shown)
VH: EVQLLESGGGLVQPGGSLRLSCAASGFNFRSYWMTWVRQAPGKGLEWVSSISSHSTYIYYADSVKGRFTISRDNSKNTLYLQMNSLRAEDTATYYCAREGWYDNWFDPWGQGTLVTVSS
VL: EIVLTQSPGTLSLSPGERATLSCRASQNIRSPYLAWYQQKPGQAPRLLIYGVSSRAAGIPDRFSGSGSGTDFTLTISRLEPEDFAVYYCQQYDDHPYTFGQGTKLEIK
For B2, the Kd with human ANGPTL3 17-220 [2] is 21 nM; with human ANGPTL3 17-220 [3], 2000 nM.

B3: tmAb3 (antibody, V domains shown)
VH: EVQLLESGGGLVQPGGSLRLSCAASGFNFESYWMTWVRQAPGKGLEWVSSISSHSTYIYYADSVKGRFTISRDNSKNTLYLQMNSLRAEDTATYYCAREGWYDNWFDPWGQGTLVTVSS
VL: EIVLTQSPGTLSLSPGERATLSCRASQNIRSPYLAWYQQKPGQAPRLLIYGVSSRAAGIPDRFSGSGSGTDFTLTISRLEPEDFAVYYCQQYDDHPYTFGQGTKLEIK
For the molecule B3, the dissociation constant Kd with human ANGPTL3 17-220 [2] is 18 nM; with human ANGPTL3 17-220 [3] it was 3000 nM.

B4: tmAb4 (antibody, V domains shown)
VH: EVQLLESGGGLVQPGGSLRLSCAASGFNFESYWMTWVRQAPGKGLEWVSSISSHSTYIYYADSVKGRFTISRDNSKNTLYLQMNSLRAEDTATYYCAREGWYDNWNDPWGQGTLVTVSS
VL: EIVLTQSPGTLSLSPGERATLSCRASQNIRSPYLAWYQQKPGQAPRLLIYGVSSRAAGIPDRFSGSGSGTDFTLTISRLEPEDFAVYYCQQYDDHPYTFGQGTKLEIK
Take B4: in the assay with human ANGPTL3 17-220 [1], the binding result is on record as “no binding”. The dissociation constant (Kd) in the assay with human ANGPTL3 17-220 [2] worked out at 56 nM.

The values above are taken from patent publication US11780910 (dated 2023).
